Test results as given in IntAct's records for PubMed 15090617.

B1: Protein SGT1 (Saccharomyces cerevisiae), Q08446 (parent)
chain: MPVEKDLKTAYKALYDEKEPLKALHLYDEILKGSPTNLTALIFKAACLEKLYFGFSDWHSDATMENAKELLDKALMTAEGRGDRSKIGLVNFRYFVHFFNIKDYELAQSYFKKAKNLGYVDDTLPLWEDRLETKLNKKNKKQKDSTNKHTIKPVESIENRGDNNSSHSPISPLKIETAPQESPKFKIDWYQSSTSVTISLFTVNLPESKEQVNIYISPNDRRTLSISYQVPKSGSEFQYNAKLSHEVDPKAVSLKIFPKKLEITLSKIDSTQWKKLEEDILTESSRLSDEGKNSDSATRLLSAETASKERLSYPSSSKKKIDWSKLDIDEEADEEAGSADSFFQKLYAGADPDTKRAMMKSFIESNGTALSTDWEDVSKGTVKTSPPEGMEPKHW

Variants of: B1
Details: with skp1_yeast SKP1, P52286
skp1_yeast SKP1, P52286, sequence (P52286 whole entry): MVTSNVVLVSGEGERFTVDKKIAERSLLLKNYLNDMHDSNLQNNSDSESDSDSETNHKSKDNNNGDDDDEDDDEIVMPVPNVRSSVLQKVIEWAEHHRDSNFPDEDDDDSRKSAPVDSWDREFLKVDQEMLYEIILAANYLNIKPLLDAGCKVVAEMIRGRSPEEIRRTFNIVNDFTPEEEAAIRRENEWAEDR

| effect of a mutation on the interaction | Variant |
| --- | --- |
| decreasing interaction | MPVEKDLKTAYKALYDEKEPLKALHLYDEILKGSPTNLTALIFKAACLEKLYFGFSDWHSDATMENAKELLDKALMTAEGRGDRSKIGLVNFRYFVHFFNIKDYELAQSYFKKAKNLGYVDDTLPLWEDRLETKLNKKNKKQKDSSNKHTIKPVESIENRGDNNSSHSPISPLKIETAPQESPKFKIDWYQSSTSVTISLFTVNLPESKEQVNIYISPNDRRTLSISYQVPKSGSEFQYNAKLSHEVDPKAVSLKIFPKKLEITLSKIDSTQWKKLEEDILTESSRLSDEGKNSDSATRLLSAETASKERLSYPSSSKKKIDWSKLDIDEEADEEAGSADSFFQKLYAGADPDTKRAMMKSFIESNGTALSTDWEDVSKGTVKTSPPEGMEPKHW [T146S] |
